{"source": "patent US20250179196A1", "about": "(Janssen / Centocor, published 2025)", "binders": {"B1": {"name": "I23RB4 (antibody, mouse IgG2a, kappa, V domains shown)", "VH": "QVQLVQSGAEVKKPGSSVKVSCKASGGTFKTYAIHWVRQAPGQGLEWMGWIIPIFGTANYAQKFQGRVTITADESTSTAYMELSSLRSEDTAVYYCARDGGYYGSRYYPRSYYFDYWGQGTLVTVSS", "VL": "EIVLTQSPATLSLSPGERATLSCRASQSVSSYLAWYQQKPGQAPRLLIYDASNRATGIPARFSGSGSGTDFTLTISSLEPEDFAVYYCQQRSNWPLTFGQGTKVEIKR", "notes": "phage display; human V regions, mouse IgG2a/kappa constant regions"}, "B2": {"name": "I23RB2 (antibody, mouse IgG2a, kappa, V domains shown)", "VH": "QVQLVQSGAEVKKPGSSVKVSCKASGGTFSSYAISWVRQAPGQGLEWMGGIIPIFGTANYAQKFQGRVTITADESTSTAYMELSSLRSEDTAVYYCARDRYRYLGANGFDYWGQGTLVTVSS", "VL": "B1 VL", "notes": "as for B1"}, "B3": {"name": "I23RB3 (antibody, mouse IgG2a, kappa, V domains shown)", "VH": "QVQLVQSGAEVKKPGSSVKVSCKASGGTFKSYSIHWVRQAPGQGLEWMGGIIPYFGYANYAQKFQGRVTITADESTSTAYMELSSLRSEDTAVYYCARERGYYGSIYYGGGFDYWGQGTLVTVSS", "VL": "B1 VL", "notes": "as for B1"}, "B4": {"name": "I23RB9 (antibody, mouse IgG2a, kappa, V domains shown)", "VH": "QVQLVQSGAEVKKPGSSVKVSCKASGGTFSSYAISWVRQAPGQGLEWMGGIIPIFGTANYAQKFQGRVTITADESTSTAYMELSSLRSEDTAVYYCARDRSYSYGLSGLGYYGFDYWGQGTLVTVSS", "VL": "B1 VL", "notes": "as for B1"}, "B5": {"name": "I23RB6 (antibody, mouse IgG2a, kappa, V domains shown)", "VH": "QVQLVQSGAEVKKPGSSVKVSCKASGGTFSSYAISWVRQAPGQGLEWMGGIIPIFGTANYAQKFQGRVTITADESTSTAYMELSSLRSEDTAVYYCARGRYIRSYDYFDYWGQGTLVTVSS", "VL": "not shown", "notes": "as for B1"}, "B6": {"name": "I23RB101 (antibody, mouse IgG2a, kappa, V domains shown)", "VH": "EVQLQQSGAEVKKPGSSVKVSCKASGGTFSSYAISWVRQAPGQGLEWMGWINPNSGGTNYAQKFQGRVTMTRDTSISTAYMELSRLRSDDTAVYYCARGYRYGPLDGFDIWGQGTTLTVSS", "VL": "DIVMTQSHKFMSTSIGDRVSITCKTSQDVRTAVAWYQQKPGQSPKLLIYSASYRYIGVPDRFTGSGSGTDFTFTISDVQAEDLALYYCQQHYSTPYTFGGGTKLEIKR", "notes": "mouse immunization; mouse IgG2a/kappa"}, "B7": {"name": "I23RB76 (antibody, mouse IgG2a, kappa, V domains shown)", "VH": "EVQLQQSGPELVKPGASVKMSCKASGYTFTDYYMNWMKQSHGKSLEWIGYISPKNGRTGYNQKFKGKATLTVDKSSTTAYMELRSLTSEDSAVYYCAKSNGYYALDYWGQGTTVTVSS", "VL": "DIVLTQSPATLCVTPGETVSLSCRASQNIYKNLHWFQQKSHRSPRLLIKYASDSISGIPSRFTGSGSGTDYTLSINSVKPEDEGIYYCLQGYSTPWTFGGGTKLEIKR", "notes": "as for B6"}, "B8": {"name": "I23RB94 (antibody, mouse IgG2a, kappa, V domains shown)", "VH": "DVQLQESGPELKKPGETVKISCKASGYTFTNYGMNWVRQAPGKSLKWMGWINTNTGEPAYAEEFKGRFAFSLETSASTAYLQINNLKNEDMATYFCARVRQTARATRGYFDVWGTGTTVTVSS", "VL": "DIVMTQSHKFMSTSVGDRVSITCKASQDVNTAVAWYQQKPGQSPKLLIYSAFYRYPGVPDRFTGSGSGTDFTFTINSVQAEDLAVYCCQQHYTSPLTFGDGTRLEIKR", "notes": "as for B6"}, "B9": {"name": "I23RB65 (antibody, mouse IgG2a, kappa, V domains shown)", "VH": "EVQLQQSGPELVKPGASVKISCKASGYTFTDHTMDWVKQSHGKSLEWIGYIYPKSGNAAYSQKFKSEATLTVDKSSSTAYMEFHSLTSEDSAVYYCARWGLRRDGFTYWGQGTSVTVSS", "VL": "QIVLTQSPASLAVSLGQRATISCRASQSVSTSSYNYIHWYQQKPGQPPKLLIKYASNLESGVPARFSGSGSGTDFTLNIHPVEEDDTATYYCQHTWEIPYTFGSGTKLEIKR", "notes": "as for B6"}, "B10": {"name": "I23RB92 (antibody, mouse IgG2a, kappa, V domains shown)", "VH": "EVQLQQSGPEVVKPGASVKISCKASGYTFTDHTMDWVKQSHGKNLEWIGYIYPKSGGTGYNQKFKNKATLTVDKSSSTAYMEFHSLTSDDSAVYYCARWGLRRDGFVYWGQGTLVTVSA", "VL": "B9 VL with Q1D, V3K, L4M, S33K, N35D, P44S, K49R, D85E, I110L", "notes": "as for B6"}, "B11": {"name": "I23RB42 (antibody, mouse IgG2a, kappa, V domains shown)", "VH": "EVQLQQSGAELVKPGASVKISCKASGYSFTDYIMNWVKQSHGKSLEWIGNINPYFGFTSYNQEFKGKATLTVDKSSSTAYMLLNSLTSEDSAVYYCSRGSYYGYETFFDYWGQGTTLTVSS", "VL": "DIVLTQTAPSVPVTPGESVSISCRSSKSLLHSNGNTYLYWFLQRPGQSPQLLIYRMSNLASGVPDRFSGSGSGTAFTLRISRVEAEDVGVYYCMQHLEYPYTFGSGTRLEIKR", "notes": "as for B6"}}, "note": "Changes are numbered by the printed parent chain.", "data": [{"biological_target": "T1, Recombinant human IL-23 receptor (IL-23R) extracellular domain (ECD) protein (human, UniProt Q5VWK5 24-355)", "T1 construct": "also called human IL-23R ECD; hu IL-23R ECD", "T1 sequence": "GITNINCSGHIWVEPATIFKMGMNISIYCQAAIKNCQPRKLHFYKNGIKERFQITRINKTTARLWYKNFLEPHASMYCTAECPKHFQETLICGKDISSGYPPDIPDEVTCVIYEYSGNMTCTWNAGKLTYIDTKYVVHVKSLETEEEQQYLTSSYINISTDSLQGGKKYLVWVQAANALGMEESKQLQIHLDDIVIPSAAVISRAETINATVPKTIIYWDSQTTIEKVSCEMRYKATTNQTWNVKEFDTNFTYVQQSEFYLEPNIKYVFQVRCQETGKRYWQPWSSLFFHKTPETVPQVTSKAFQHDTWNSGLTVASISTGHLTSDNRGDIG", "experiment": "SPR ProteOn, purified", "protocol": "Affinity by SPR using ProteOn. Affinity measurements using Surface Plasmon Resonance (SPR) were performed using a ProteOn XPR36 system (BioRad). […] Approximately 6000 RU (response units) of mAbs were immobilized. The kinetic experiments were performed at 25° C. in running buffer (DPBS+0.01% P20+100 μg/ml BSA). […] The association phase was monitored for 3 minutes at 50 μL/min, then followed by 10 minutes of buffer flow (dissociation phase). The chip surface was regenerated with two 18 second pulses of 100 mM H3PO4 (Sigma, Cat #7961) at 100 μL/min. The collected data were processed using ProteOn Manager software. First, the data was corrected for background using inter-spots. Then, double reference subtraction of the data was performed by using the buffer injection for analyte injections. The kinetic analysis of the data was performed using a Langmuir 1:1 binding model. The result for each mAb was reported in the format of Ka (On-rate), Kd (Off-rate) and KD (equilibrium dissociation constant).", "units": {"Kd": "nM", "koff": "s⁻¹", "kon": "M⁻¹ s⁻¹"}, "values": [{"binder": "B1", "Kd": 0.151, "koff": 0.000235, "kon": "1.56e+06"}, {"binder": "B2", "Kd": "> 4000"}, {"binder": "B3", "Kd": 1.92, "koff": 0.000335, "kon": 174000}, {"binder": "B4", "binding result": "no binding"}, {"binder": "B5", "binding result": "no binding"}]}, {"biological_target": "T2, rat IL-23R extracellular domain (ECD) protein (rat)", "T2 construct": "also called rat IL-23R ECD; F1LX96 amino acids 24-354", "T2 chain": "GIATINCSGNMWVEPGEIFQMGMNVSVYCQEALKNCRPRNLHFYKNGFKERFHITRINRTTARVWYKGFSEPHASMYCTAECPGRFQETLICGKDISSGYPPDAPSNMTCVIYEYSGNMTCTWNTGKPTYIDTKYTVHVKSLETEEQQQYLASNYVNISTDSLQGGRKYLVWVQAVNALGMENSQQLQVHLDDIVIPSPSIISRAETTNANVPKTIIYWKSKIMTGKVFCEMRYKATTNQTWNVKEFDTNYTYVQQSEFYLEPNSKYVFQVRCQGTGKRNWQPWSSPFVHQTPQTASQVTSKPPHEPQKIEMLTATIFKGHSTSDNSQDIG", "experiment": "SPR Biacore 8K, purified", "protocol": "(§1) Affinity by SPR using Biacore 8K. Affinity measurements using Surface Plasmon Resonance (SPR) were performed using a Biacore 8K system (Cytiva). […] Approximately 9000-10000 RU (response units) of mAbs were immobilized. The kinetic experiments were performed at 25° C. in running buffer 1× of (HBS-P+ Buffer 10× (Cytiva #BR100671)+100 μg/ml BSA). To perform kinetic experiments, approximately 150 RU of mAbs were captured followed by injections of human IL-23R or rat IL-23R at concentrations ranging from 0.8 nM to 500 nM (in a 5-fold serial dilution). The association phase was monitored for 3 minutes at 50 μL/min, then followed by 30 minutes of buffer flow (dissociation phase). […] The collected data were processed using Biacore insight Evaluation software (Version 3.0.12.15655). The kinetic analysis of the data was performed using a Langmuir 1:1 binding model. The result for each mAb was reported in the format of Ka (On-rate), Kd (Off-rate) and KD (equilibrium dissociation constant).", "values": [{"binder": "B6", "binding result": "no binding (tested: 500 nM)"}]}, {"biological_target": "T2, rat IL-23R extracellular domain (ECD) …", "experiment": "SPR Biacore 8K, supernatant", "summary_of_the_method": "(§2)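 Antibodies (~150 RU) were captured and human or rat IL-23R ECD injected at 0.8–500 nM in 5-fold steps, at 25 °C in HBS-P+ with 100 μg/ml BSA. Association ran 3 min at 50 μL/min, followed by 30 min dissociation. Ka, Kd and KD came from a Langmuir 1:1 fit.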", "values": [{"binder": "B7", "binding result": "no binding (tested: 500 nM)"}, {"binder": "B8", "binding result": "no binding (tested: 500 nM)"}, {"binder": "B9", "binding result": "no binding (tested: 500 nM)"}, {"binder": "B10", "binding result": "no binding (tested: 500 nM)"}, {"binder": "B1", "binding result": "no binding (tested: 500 nM)"}, {"binder": "B3", "binding result": "no binding (tested: 500 nM)"}]}, {"biological_target": "T1, Recombinant human IL-23 receptor …", "experiment": "SPR Biacore 8K, purified, analysis 1", "protocol": "as §1", "units": {"Kd": "nM", "koff": "s⁻¹", "kon": "M⁻¹ s⁻¹"}, "values": [{"binder": "B7", "Kd": 0.0891, "koff": "5.62e-05", "kon": 631000}, {"binder": "B11", "Kd": 0.0725, "koff": "5.76e-05", "kon": 795000}, {"binder": "B8", "Kd": 0.8, "koff": 0.00063, "kon": 787000}, {"binder": "B9", "Kd": "< 0.0597", "koff": "< 2.89e-05", "kon": 484000}, {"binder": "B10", "Kd": "< 0.109", "koff": "< 2.89e-05", "kon": 265000}, {"binder": "B1", "Kd": 0.588, "koff": 0.000135, "kon": 230000}, {"binder": "B3", "Kd": 4.76, "koff": 0.000255, "kon": 53600}]}, {"biological_target": "T1, Recombinant human IL-23 receptor …", "experiment": "SPR Biacore 8K, purified, analysis 2", "protocol": "as §1", "units": {"Kd": "nM", "koff": "s⁻¹", "kon": "M⁻¹ s⁻¹"}, "values": [{"binder": "B7", "Kd": 0.0859, "koff": "4.14e-05", "kon": 482000}, {"binder": "B11", "Kd": 0.117, "koff": "6.25e-05", "kon": 535000}, {"binder": "B8", "Kd": 1.15, "koff": 0.000753, "kon": 656000}, {"binder": "B9", "Kd": "< 0.0723", "koff": "< 2.89e-05", "kon": 400000}, {"binder": "B10", "Kd": "< 0.12", "koff": "< 2.89e-05", "kon": 240000}]}, {"biological_target": "T1, Recombinant human IL-23 receptor …", "experiment": "SPR Biacore 8K, supernatant, analysis 2", "summary_of_the_method": "as §2", "units": {"Kd": "nM", "koff": "s⁻¹", "kon": "M⁻¹ s⁻¹"}, "values": [{"binder": "B7", "Kd": 0.0805, "koff": "3.9e-05", "kon": 484000}, {"binder": "B11", "Kd": 0.108, "koff": "6.29e-05", "kon": 582000}, {"binder": "B8", "Kd": 1, "koff": 0.000686, "kon": 685000}, {"binder": "B9", "Kd": 0.11, "koff": "4.58e-05", "kon": 416000}, {"binder": "B10", "Kd": "< 0.124", "koff": "< 2.89e-05", "kon": 233000}, {"binder": "B1", "Kd": 0.477, "koff": 0.000121, "kon": 254000}, {"binder": "B3", "Kd": 3.99, "koff": 0.000233, "kon": 58300}]}]}
